# Source: article PMC3944073
# Biological target: GFP-β-DGNLS fusion protein
# Assay: AlphaScreen or HTRF; ALPHAScreen; His6-tagged GFP-β-DG-NLS at a fixed amount per well with increasing GST-ezrin, GST-IMPα2/β1 or GST alone (0-60 nM); nickel chelate acceptor beads and streptavidin donor beads; room temperature; apparent dissociation constants from sigmoidal fits
substance,measurement,value
GST-ezrin (mouse) (from UniProt P26040 1-586) (natural protein),Kd,2.22 nM
